Measured values taken from article PMC2659343.
Like-named read-outs stand apart in the source and are kept apart here.

Experiments:
MCR1 (MBP-core RAG1) [1] = biological target: T1, MCR1 (MBP-core RAG1) (UniProt P15919 384-1008); assay: EMSA
T1 sequence: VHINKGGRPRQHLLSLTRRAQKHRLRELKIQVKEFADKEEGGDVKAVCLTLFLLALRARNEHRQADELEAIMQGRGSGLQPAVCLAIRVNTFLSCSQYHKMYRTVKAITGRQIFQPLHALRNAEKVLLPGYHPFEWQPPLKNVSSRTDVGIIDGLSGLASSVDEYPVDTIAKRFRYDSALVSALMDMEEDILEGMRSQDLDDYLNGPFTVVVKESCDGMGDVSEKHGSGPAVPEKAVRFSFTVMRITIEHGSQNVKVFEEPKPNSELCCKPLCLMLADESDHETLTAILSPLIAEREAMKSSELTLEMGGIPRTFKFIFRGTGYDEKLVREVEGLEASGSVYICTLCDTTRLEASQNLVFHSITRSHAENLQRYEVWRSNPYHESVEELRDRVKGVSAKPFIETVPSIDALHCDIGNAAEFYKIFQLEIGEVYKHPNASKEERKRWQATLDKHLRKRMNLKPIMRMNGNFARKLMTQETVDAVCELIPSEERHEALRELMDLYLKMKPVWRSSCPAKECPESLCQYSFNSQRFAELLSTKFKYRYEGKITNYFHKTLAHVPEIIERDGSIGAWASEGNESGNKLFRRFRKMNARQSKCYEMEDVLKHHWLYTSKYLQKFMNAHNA

[2] = biological target: T2, MCR1 (MBP-core RAG1);GST-core RAG2 (mouse?;mouse?, UniProt P15919;P21784 384-1008;1-387, |); assay: EMSA
T2 sequence 1: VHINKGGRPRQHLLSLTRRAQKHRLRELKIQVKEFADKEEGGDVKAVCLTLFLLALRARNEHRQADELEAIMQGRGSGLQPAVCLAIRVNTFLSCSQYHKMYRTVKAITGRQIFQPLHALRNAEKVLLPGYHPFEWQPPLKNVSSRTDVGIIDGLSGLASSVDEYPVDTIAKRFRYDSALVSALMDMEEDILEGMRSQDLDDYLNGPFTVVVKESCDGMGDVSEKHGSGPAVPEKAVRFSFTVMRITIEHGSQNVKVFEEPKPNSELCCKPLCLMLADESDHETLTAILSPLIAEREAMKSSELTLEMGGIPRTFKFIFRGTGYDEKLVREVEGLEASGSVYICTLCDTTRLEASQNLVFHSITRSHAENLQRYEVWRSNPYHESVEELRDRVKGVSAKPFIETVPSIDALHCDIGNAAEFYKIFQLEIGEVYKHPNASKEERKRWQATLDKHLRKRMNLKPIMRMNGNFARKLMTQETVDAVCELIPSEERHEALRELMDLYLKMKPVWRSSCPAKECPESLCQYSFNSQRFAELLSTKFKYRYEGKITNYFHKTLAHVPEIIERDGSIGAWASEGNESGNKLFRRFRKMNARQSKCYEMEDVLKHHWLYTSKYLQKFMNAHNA
T2 sequence 2: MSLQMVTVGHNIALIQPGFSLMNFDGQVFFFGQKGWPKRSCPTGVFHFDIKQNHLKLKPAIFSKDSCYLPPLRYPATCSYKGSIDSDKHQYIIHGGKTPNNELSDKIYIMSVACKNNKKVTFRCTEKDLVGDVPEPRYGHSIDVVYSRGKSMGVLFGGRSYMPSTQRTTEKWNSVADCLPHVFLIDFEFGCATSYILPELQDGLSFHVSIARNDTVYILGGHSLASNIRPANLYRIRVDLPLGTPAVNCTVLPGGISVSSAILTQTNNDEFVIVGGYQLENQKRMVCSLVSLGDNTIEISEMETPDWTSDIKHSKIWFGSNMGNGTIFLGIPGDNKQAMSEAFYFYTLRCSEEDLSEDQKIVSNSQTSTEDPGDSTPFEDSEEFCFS

[3] = biological target: T3, MCR1 from 293T (co-expressed with GST-core RAG2);GST-core RAG2 (mouse?;mouse?, UniProt P15919;P21784 384-1008;1-387, |); assay: EMSA
T3 sequence 1: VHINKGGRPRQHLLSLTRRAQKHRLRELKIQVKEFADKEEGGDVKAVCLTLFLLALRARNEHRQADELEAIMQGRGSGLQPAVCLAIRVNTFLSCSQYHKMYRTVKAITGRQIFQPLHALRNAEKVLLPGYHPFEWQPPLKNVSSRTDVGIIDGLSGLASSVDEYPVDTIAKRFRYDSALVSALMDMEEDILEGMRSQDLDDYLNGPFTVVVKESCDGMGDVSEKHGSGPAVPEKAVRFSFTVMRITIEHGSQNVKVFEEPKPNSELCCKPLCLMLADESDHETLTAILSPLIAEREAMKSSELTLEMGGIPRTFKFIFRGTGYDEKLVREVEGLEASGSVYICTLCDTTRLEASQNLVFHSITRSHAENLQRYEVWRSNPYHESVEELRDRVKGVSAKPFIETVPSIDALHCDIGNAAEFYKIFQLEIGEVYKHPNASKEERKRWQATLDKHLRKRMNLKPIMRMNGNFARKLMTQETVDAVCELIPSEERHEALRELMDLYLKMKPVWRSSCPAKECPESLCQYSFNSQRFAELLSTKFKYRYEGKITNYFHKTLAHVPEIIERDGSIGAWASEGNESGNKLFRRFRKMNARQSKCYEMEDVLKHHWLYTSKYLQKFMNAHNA
T3 sequence 2: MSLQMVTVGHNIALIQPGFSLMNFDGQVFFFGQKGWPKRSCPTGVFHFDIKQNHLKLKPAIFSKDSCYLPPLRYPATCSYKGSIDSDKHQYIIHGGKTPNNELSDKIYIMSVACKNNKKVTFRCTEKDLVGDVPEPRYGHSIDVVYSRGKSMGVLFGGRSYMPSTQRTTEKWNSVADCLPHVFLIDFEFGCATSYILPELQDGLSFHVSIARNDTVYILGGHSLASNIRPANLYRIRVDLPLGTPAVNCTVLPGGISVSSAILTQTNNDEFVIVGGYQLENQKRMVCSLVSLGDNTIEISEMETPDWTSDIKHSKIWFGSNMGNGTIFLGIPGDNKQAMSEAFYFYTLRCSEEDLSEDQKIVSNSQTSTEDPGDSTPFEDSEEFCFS

[4] = biological target: T3, MCR1 from 293T (co-expressed with …); assay: EMSA; remark: listed apart in the source
[5] = biological target: T3, MCR1 from 293T (co-expressed with …); assay: EMSA; remark: listed apart in the source
MCR1 (MBP-core RAG1) [6] = biological target: T1, MCR1 (MBP-core RAG1); assay: EMSA; remark: listed apart in the source
[7] = biological target: T2, MCR1 (MBP-core RAG1);GST-core RAG2; assay: EMSA; remark: listed apart in the source
MCR1 (MBP-core RAG1) [8] = biological target: T1, MCR1 (MBP-core RAG1); assay: competition
MCR1 (MBP-core RAG1) [9] = biological target: T1, MCR1 (MBP-core RAG1); assay: fluorescence anisotropy
MCR1 (MBP-core RAG1) [10] = biological target: T1, MCR1 (MBP-core RAG1); assay: fluorescence anisotropy; remark: listed apart in the source
MCR1 (MBP-core RAG1) [11] = biological target: T1, MCR1 (MBP-core RAG1); assay: fluorescence anisotropy; remark: listed apart in the source

B1: WT 12-RSS (dsDNA)
DNA 1: GATATGGCTCGTCTTACACAGTGATATAGACCTTAACAAAAACCTCCAATCGAGCGGAG
DNA 2: CTCCGCTCGATTGGAGGTTTTTGTTAAGGTCTATATCACTGTGTAAGACGAGCCATATC
MCR1 (MBP-core RAG1) [1]
  Kd: 114 ± 5 nM
[2]
  Kd: 87 ± 10 nM
[3]
  Kd: 25 ± 5 nM
[4]
  Kd: 32 ± 5 nM

B2: MHMN (mutant heptamer, mutant nonamer) (dsDNA)
DNA 1: GATATGGCTCGTCTTAGAGAAGCATATAGACCTTAAGGCTCTGATCCAATCGAGCGGAG
DNA 2: CTCCGCTCGATTGGATCAGAGCCTTAAGGTCTATATGCTTCTCTAAGACGAGCCATATC
[5]
  binding result: no binding
MCR1 (MBP-core RAG1) [6]
  Kd: 123 ± 7 nM
[7]
  binding result: no binding

B3: unlabeled WT 12-RSS competitor (dsDNA)
DNA 1: GATATGGCTCGTCTTACACAGTGATATAGACCTTAACAAAAACCTCCAATCGAGCGGAG
DNA 2: CTCCGCTCGATTGGAGGTTTTTGTTAAGGTCTATATCACTGTGTAAGACGAGCCATATC
MCR1 (MBP-core RAG1) [8]
  IC50: 150 nM

B4: Oregon Green WT 12-RSS (dsDNA)
DNA 1: GATATGGCTCGTCTTACACAGTGATATAGACCTTAACAAAAACCTCCAATCGAGCGGAG
DNA 2: CTCCGCTCGATTGGAGGTTTTTGTTAAGGTCTATATCACTGTGTAAGACGAGCCATATC
MCR1 (MBP-core RAG1) [9]
  Kd: 123 nM
MCR1 (MBP-core RAG1) [10]
  Kd: 27 ± 9 nM

B5: Oregon Green MHMN (dsDNA)
DNA 1: GATATGGCTCGTCTTAGAGAAGCATATAGACCTTAAGGCTCTGATCCAATCGAGCGGAG
DNA 2: CTCCGCTCGATTGGATCAGAGCCTTAAGGTCTATATGCTTCTCTAAGACGAGCCATATC
MCR1 (MBP-core RAG1) [11]
  Kd: 28 ± 8 nM
